In US20210395746, “COMPOSITIONS FOR […] TRANSCRIPTIONAL FEEDBACK CIRCUIT DISRUPTION AND USES […]” (The J. David Gladstone Institutes, a testamentary trust …, published 2021):

Columns and labels:
[1] = target: T1, IE86 (IE2) C-terminal fragment (Human cytomegalovirus) (UniProt Q6SWP7); conditions: FPLC Superose 6; 20 mM HEPES pH 7.4, 250 mM NaCl, 1 mM DTT; most efficient length
T1 sequence: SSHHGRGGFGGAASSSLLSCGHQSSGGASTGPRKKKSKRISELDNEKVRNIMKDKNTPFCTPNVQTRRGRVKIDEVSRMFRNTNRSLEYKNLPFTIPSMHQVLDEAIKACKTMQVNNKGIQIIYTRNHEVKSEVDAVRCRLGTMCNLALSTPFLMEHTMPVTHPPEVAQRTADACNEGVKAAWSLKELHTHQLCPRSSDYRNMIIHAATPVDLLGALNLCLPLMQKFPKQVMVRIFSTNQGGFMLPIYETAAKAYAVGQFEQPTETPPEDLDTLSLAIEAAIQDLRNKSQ

[2] = target: T2, IE86 (IE2) full-length, minimal feedback circuit or virus-encoded (Human cytomegalovirus, UniProt P19893 P19893:1-580); experiment: cell_activity; CMV C-DOT dose-response in 96-well format; indirect, decoy effect; conditions: tags: MIEP-IE86-IRES-GFP reporter or IE86-YFP virus; chain copies: 2
T2 sequence: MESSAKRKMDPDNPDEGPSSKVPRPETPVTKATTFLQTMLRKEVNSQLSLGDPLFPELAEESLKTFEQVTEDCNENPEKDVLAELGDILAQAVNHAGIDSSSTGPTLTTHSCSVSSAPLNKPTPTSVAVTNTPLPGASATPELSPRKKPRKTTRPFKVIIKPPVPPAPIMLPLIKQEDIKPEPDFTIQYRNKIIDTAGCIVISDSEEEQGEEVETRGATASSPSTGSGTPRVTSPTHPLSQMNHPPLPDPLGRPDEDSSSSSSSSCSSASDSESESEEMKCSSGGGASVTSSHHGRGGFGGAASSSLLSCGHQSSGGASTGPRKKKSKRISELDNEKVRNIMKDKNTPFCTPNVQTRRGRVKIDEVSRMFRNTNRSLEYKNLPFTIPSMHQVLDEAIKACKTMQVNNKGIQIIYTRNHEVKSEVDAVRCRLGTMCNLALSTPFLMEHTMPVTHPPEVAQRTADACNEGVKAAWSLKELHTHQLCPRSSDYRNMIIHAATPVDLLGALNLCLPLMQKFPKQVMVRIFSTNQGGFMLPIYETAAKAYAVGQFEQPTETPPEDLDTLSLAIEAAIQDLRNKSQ

[3] = target: T3, IE175 (ICP4) (Herpes simplex virus type 1, UniProt P08392 P08392:1-1298); experiment: cell_activity; HSV-1 C-DOT dose-response in 96-well format; indirect, decoy effect; conditions: tags: YFP fusion, strain 17syn+; chain copies: 2
T3 sequence: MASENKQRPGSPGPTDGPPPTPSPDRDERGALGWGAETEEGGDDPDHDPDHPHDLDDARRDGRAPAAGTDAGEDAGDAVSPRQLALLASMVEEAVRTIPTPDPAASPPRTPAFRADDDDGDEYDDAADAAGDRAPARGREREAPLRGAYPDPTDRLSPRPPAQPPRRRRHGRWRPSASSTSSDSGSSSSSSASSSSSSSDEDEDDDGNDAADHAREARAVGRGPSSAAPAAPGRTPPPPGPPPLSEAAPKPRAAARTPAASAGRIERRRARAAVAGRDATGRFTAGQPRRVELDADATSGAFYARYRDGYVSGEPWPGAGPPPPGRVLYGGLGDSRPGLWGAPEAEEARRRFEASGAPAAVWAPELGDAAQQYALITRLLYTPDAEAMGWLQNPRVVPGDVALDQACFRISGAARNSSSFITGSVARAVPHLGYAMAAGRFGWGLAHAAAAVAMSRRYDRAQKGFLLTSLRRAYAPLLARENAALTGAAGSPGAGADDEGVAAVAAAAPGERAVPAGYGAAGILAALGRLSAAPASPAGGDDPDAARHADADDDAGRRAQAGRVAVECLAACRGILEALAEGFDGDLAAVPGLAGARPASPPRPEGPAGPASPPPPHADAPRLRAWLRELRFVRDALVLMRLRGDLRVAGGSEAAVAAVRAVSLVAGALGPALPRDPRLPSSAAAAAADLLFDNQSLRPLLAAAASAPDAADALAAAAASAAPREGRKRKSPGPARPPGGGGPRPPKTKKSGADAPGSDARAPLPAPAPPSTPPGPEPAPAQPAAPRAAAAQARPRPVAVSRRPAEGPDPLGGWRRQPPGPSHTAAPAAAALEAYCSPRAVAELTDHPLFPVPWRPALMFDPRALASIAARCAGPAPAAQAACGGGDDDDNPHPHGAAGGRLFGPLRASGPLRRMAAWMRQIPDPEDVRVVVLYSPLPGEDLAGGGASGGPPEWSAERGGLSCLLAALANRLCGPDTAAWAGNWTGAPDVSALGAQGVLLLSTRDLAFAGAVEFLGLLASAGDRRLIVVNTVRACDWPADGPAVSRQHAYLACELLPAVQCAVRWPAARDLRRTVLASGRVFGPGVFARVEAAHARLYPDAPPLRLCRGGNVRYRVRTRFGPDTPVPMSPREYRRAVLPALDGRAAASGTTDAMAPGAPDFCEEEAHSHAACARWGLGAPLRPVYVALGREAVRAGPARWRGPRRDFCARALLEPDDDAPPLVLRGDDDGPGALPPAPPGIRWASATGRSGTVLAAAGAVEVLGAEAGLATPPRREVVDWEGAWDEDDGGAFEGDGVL

Molecule: GACAGATCGTTTAGTGAACCGTACACGA (double strand) [28 bp crs DNA]
- binding signal (% protein in complex fraction) [1]: 98

B1: C-DOTC (dsDNA)
DNA 1: GACAGATCGTTTAGTGAACCGTACACGA
DNA 2: TCGTGTACGGTTCACTAAACGATCTGTC
modifications: PS at bonds marked * G*ACAGATCGTT*TAGTGAACC*GTACACG*A / T*CGTGTAC*GGTTCACTA*AACGATCTGT*C
- IC50 [2]: < 1 nM

B2: C-DOTH (dsDNA)
DNA 1: CCGAGGACGCCCCGATCGTCCACACGGAG
DNA 2: CTCCGTGTGGACGATCGGGGCGTCCTCGG
modifications: PS at bonds marked * CCG*AGGAC*GCCCCGATC*GTCCACACG*GAG / CTC*CGTGTGGAC*GATCGGGGC*GTCCT*CGG
- IC50 [3]: < 1 nM
